Data from patent publication US5665701.

Assays:
[1] = target: FcγRII receptor (CD32) on human platelets (human) (UniProt P12318)
[2] = target: FcγRII receptor (CD32) on human platelets (human) (UniProt P12318); remark: listed apart in the source

concentration that doubled the latency of M.Ab.F11-induced aggregation [1]: 150 ng/mL
inhibition of M.Ab.F11-induced ^14 C-serotonin release [2]: 1 µg/mL
Substance: CD32 antibody IV.3 (M.Ab.IV.3)
